In US20260015399A1 (Boehringer Ingelheim, published 2026):
*1 amine or outer side, *2 acyl side, *3 side chain or, on linkers, in order; H or OH if unused. Side-chain parts run from the residue outwards. The star is where a group is joined. C18 diacid = O=C(O)CCCCCCCCCCCCCCCCC(=O)*; γGlu = O=C(O)[C@H](CCC(=O)[*:2])N[*:1]; Isovaleryl = CC(C)CC(=O)*; Ahx = NCCCCCC(=O)O

Molecular target: T1, human NPY2 receptor (human, UniProt P49146 1-381)
T1 construct: whole, on cells; also called hNPY2-R; hNPY2R
T1 sequence (looked up): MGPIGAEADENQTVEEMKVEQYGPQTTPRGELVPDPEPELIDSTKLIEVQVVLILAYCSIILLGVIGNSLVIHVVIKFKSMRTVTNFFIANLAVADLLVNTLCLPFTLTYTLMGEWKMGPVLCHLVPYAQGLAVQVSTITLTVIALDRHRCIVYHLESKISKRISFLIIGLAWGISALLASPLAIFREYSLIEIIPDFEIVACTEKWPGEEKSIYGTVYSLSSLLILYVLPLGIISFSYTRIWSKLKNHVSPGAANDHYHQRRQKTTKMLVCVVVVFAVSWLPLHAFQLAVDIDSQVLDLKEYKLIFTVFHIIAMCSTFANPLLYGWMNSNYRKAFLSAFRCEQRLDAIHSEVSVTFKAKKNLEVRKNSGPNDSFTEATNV
Experiment: RLB: displacement of 125I-PYY(1-36) from hNPY2R membranes

| Binder | Ki [nM] |
| --- | --- |
| Isovaleryl-APAK([Ahx-γGlu-C18 diacid])PEEDASPEELQRYYVSLRHYYQWLTRQRY-NH2 (SMILES CC(C)CC(=O)N[C@@H](C)C(=O)N1CCC[C@H]1C(=O)N[C@@H](C)C(=O)N[C@@H](CCCCNC(=O)CCCCCNC(=O)CC[C@H](NC(=O)CCCCCCCCCCCCCCCCC(=O)O)C(=O)O)C(=O)N1CCC[C@H]1C(=O)N[C@@H](CCC(=O)O)C(=O)N[C@@H](CCC(=O)O)C(=O)N[C@@H](CC(=O)O)C(=O)N[C@@H](C)C(=O)N[C@@H](CO)C(=O)N1CCC[C@H]1C(=O)N[C@@H](CCC(=O)O)C(=O)N[C@@H](CCC(=O)O)C(=O)N[C@@H](CC(C)C)C(=O)N[C@@H](CCC(N)=O)C(=O)N[C@@H](CCCNC(=N)N)C(=O)N[C@@H](Cc1ccc(O)cc1)C(=O)N[C@@H](Cc1ccc(O)cc1)C(=O)N[C@H](C(=O)N[C@@H](CO)C(=O)N[C@@H](CC(C)C)C(=O)N[C@@H](CCCNC(=N)N)C(=O)N[C@@H](Cc1c[nH]cn1)C(=O)N[C@@H](Cc1ccc(O)cc1)C(=O)N[C@@H](Cc1ccc(O)cc1)C(=O)N[C@@H](CCC(N)=O)C(=O)N[C@@H](Cc1c[nH]c2ccccc12)C(=O)N[C@@H](CC(C)C)C(=O)N[C@H](C(=O)N[C@@H](CCCNC(=N)N)C(=O)N[C@@H](CCC(N)=O)C(=O)N[C@@H](CCCNC(=N)N)C(=O)N[C@@H](Cc1ccc(O)cc1)C(N)=O)[C@@H](C)O)C(C)C) [Compound 78] | 1.8 |
| Isovaleryl-APEK([Ahx-γGlu-C18 diacid])PEEDASEAELQRYYVSLRHYYNWLTRQRY-NH2 (SMILES CC(C)CC(=O)N[C@@H](C)C(=O)N1CCC[C@H]1C(=O)N[C@@H](CCC(=O)O)C(=O)N[C@@H](CCCCNC(=O)CCCCCNC(=O)CC[C@H](NC(=O)CCCCCCCCCCCCCCCCC(=O)O)C(=O)O)C(=O)N1CCC[C@H]1C(=O)N[C@@H](CCC(=O)O)C(=O)N[C@@H](CCC(=O)O)C(=O)N[C@@H](CC(=O)O)C(=O)N[C@@H](C)C(=O)N[C@@H](CO)C(=O)N[C@@H](CCC(=O)O)C(=O)N[C@@H](C)C(=O)N[C@@H](CCC(=O)O)C(=O)N[C@@H](CC(C)C)C(=O)N[C@@H](CCC(N)=O)C(=O)N[C@@H](CCCNC(=N)N)C(=O)N[C@@H](Cc1ccc(O)cc1)C(=O)N[C@@H](Cc1ccc(O)cc1)C(=O)N[C@H](C(=O)N[C@@H](CO)C(=O)N[C@@H](CC(C)C)C(=O)N[C@@H](CCCNC(=N)N)C(=O)N[C@@H](Cc1c[nH]cn1)C(=O)N[C@@H](Cc1ccc(O)cc1)C(=O)N[C@@H](Cc1ccc(O)cc1)C(=O)N[C@@H](CC(N)=O)C(=O)N[C@@H](Cc1c[nH]c2ccccc12)C(=O)N[C@@H](CC(C)C)C(=O)N[C@H](C(=O)N[C@@H](CCCNC(=N)N)C(=O)N[C@@H](CCC(N)=O)C(=O)N[C@@H](CCCNC(=N)N)C(=O)N[C@@H](Cc1ccc(O)cc1)C(N)=O)[C@@H](C)O)C(C)C) [Compound 80] | 4.62 |
| Isovaleryl-APEK([Ahx-γGlu-C18 diacid])PEEDAQPEEIQRYYVSLRHYYNWLTRQRY-NH2 (SMILES CC[C@H](C)[C@H](NC(=O)[C@H](CCC(=O)O)NC(=O)[C@H](CCC(=O)O)NC(=O)[C@@H]1CCCN1C(=O)[C@H](CCC(N)=O)NC(=O)[C@H](C)NC(=O)[C@H](CC(=O)O)NC(=O)[C@H](CCC(=O)O)NC(=O)[C@H](CCC(=O)O)NC(=O)[C@@H]1CCCN1C(=O)[C@H](CCCCNC(=O)CCCCCNC(=O)CC[C@H](NC(=O)CCCCCCCCCCCCCCCCC(=O)O)C(=O)O)NC(=O)[C@H](CCC(=O)O)NC(=O)[C@@H]1CCCN1C(=O)[C@H](C)NC(=O)CC(C)C)C(=O)N[C@@H](CCC(N)=O)C(=O)N[C@@H](CCCNC(=N)N)C(=O)N[C@@H](Cc1ccc(O)cc1)C(=O)N[C@@H](Cc1ccc(O)cc1)C(=O)N[C@H](C(=O)N[C@@H](CO)C(=O)N[C@@H](CC(C)C)C(=O)N[C@@H](CCCNC(=N)N)C(=O)N[C@@H](Cc1c[nH]cn1)C(=O)N[C@@H](Cc1ccc(O)cc1)C(=O)N[C@@H](Cc1ccc(O)cc1)C(=O)N[C@@H](CC(N)=O)C(=O)N[C@@H](Cc1c[nH]c2ccccc12)C(=O)N[C@@H](CC(C)C)C(=O)N[C@H](C(=O)N[C@@H](CCCNC(=N)N)C(=O)N[C@@H](CCC(N)=O)C(=O)N[C@@H](CCCNC(=N)N)C(=O)N[C@@H](Cc1ccc(O)cc1)C(N)=O)[C@@H](C)O)C(C)C) [Compound 81] | 2.65 |
| Isovaleryl-APAK([Ahx-γGlu-C18 diacid])PPEDASPEEIQRYYVSLRHYYNWLTRQRY-NH2 (SMILES CC[C@H](C)[C@H](NC(=O)[C@H](CCC(=O)O)NC(=O)[C@H](CCC(=O)O)NC(=O)[C@@H]1CCCN1C(=O)[C@H](CO)NC(=O)[C@H](C)NC(=O)[C@H](CC(=O)O)NC(=O)[C@H](CCC(=O)O)NC(=O)[C@@H]1CCCN1C(=O)[C@@H]1CCCN1C(=O)[C@H](CCCCNC(=O)CCCCCNC(=O)CC[C@H](NC(=O)CCCCCCCCCCCCCCCCC(=O)O)C(=O)O)NC(=O)[C@H](C)NC(=O)[C@@H]1CCCN1C(=O)[C@H](C)NC(=O)CC(C)C)C(=O)N[C@@H](CCC(N)=O)C(=O)N[C@@H](CCCNC(=N)N)C(=O)N[C@@H](Cc1ccc(O)cc1)C(=O)N[C@@H](Cc1ccc(O)cc1)C(=O)N[C@H](C(=O)N[C@@H](CO)C(=O)N[C@@H](CC(C)C)C(=O)N[C@@H](CCCNC(=N)N)C(=O)N[C@@H](Cc1c[nH]cn1)C(=O)N[C@@H](Cc1ccc(O)cc1)C(=O)N[C@@H](Cc1ccc(O)cc1)C(=O)N[C@@H](CC(N)=O)C(=O)N[C@@H](Cc1c[nH]c2ccccc12)C(=O)N[C@@H](CC(C)C)C(=O)N[C@H](C(=O)N[C@@H](CCCNC(=N)N)C(=O)N[C@@H](CCC(N)=O)C(=O)N[C@@H](CCCNC(=N)N)C(=O)N[C@@H](Cc1ccc(O)cc1)C(N)=O)[C@@H](C)O)C(C)C) [Compound 82] | 0.58 |
| Isovaleryl-APEK([Ahx-γGlu-C18 diacid])PEEDATSEELQRYYVSLRHYYNWLTRQRY-NH2 (SMILES CC(C)CC(=O)N[C@@H](C)C(=O)N1CCC[C@H]1C(=O)N[C@@H](CCC(=O)O)C(=O)N[C@@H](CCCCNC(=O)CCCCCNC(=O)CC[C@H](NC(=O)CCCCCCCCCCCCCCCCC(=O)O)C(=O)O)C(=O)N1CCC[C@H]1C(=O)N[C@@H](CCC(=O)O)C(=O)N[C@@H](CCC(=O)O)C(=O)N[C@@H](CC(=O)O)C(=O)N[C@@H](C)C(=O)N[C@H](C(=O)N[C@@H](CO)C(=O)N[C@@H](CCC(=O)O)C(=O)N[C@@H](CCC(=O)O)C(=O)N[C@@H](CC(C)C)C(=O)N[C@@H](CCC(N)=O)C(=O)N[C@@H](CCCNC(=N)N)C(=O)N[C@@H](Cc1ccc(O)cc1)C(=O)N[C@@H](Cc1ccc(O)cc1)C(=O)N[C@H](C(=O)N[C@@H](CO)C(=O)N[C@@H](CC(C)C)C(=O)N[C@@H](CCCNC(=N)N)C(=O)N[C@@H](Cc1c[nH]cn1)C(=O)N[C@@H](Cc1ccc(O)cc1)C(=O)N[C@@H](Cc1ccc(O)cc1)C(=O)N[C@@H](CC(N)=O)C(=O)N[C@@H](Cc1c[nH]c2ccccc12)C(=O)N[C@@H](CC(C)C)C(=O)N[C@H](C(=O)N[C@@H](CCCNC(=N)N)C(=O)N[C@@H](CCC(N)=O)C(=O)N[C@@H](CCCNC(=N)N)C(=O)N[C@@H](Cc1ccc(O)cc1)C(N)=O)[C@@H](C)O)C(C)C)[C@@H](C)O) [Compound 83] | 6.91 |
| Isovaleryl-APAK([Ahx-γGlu-C18 diacid])PEEDASPEETQRYYVSLRHYYNWLTRQRY-NH2 (SMILES CC(C)CC(=O)N[C@@H](C)C(=O)N1CCC[C@H]1C(=O)N[C@@H](C)C(=O)N[C@@H](CCCCNC(=O)CCCCCNC(=O)CC[C@H](NC(=O)CCCCCCCCCCCCCCCCC(=O)O)C(=O)O)C(=O)N1CCC[C@H]1C(=O)N[C@@H](CCC(=O)O)C(=O)N[C@@H](CCC(=O)O)C(=O)N[C@@H](CC(=O)O)C(=O)N[C@@H](C)C(=O)N[C@@H](CO)C(=O)N1CCC[C@H]1C(=O)N[C@@H](CCC(=O)O)C(=O)N[C@@H](CCC(=O)O)C(=O)N[C@H](C(=O)N[C@@H](CCC(N)=O)C(=O)N[C@@H](CCCNC(=N)N)C(=O)N[C@@H](Cc1ccc(O)cc1)C(=O)N[C@@H](Cc1ccc(O)cc1)C(=O)N[C@H](C(=O)N[C@@H](CO)C(=O)N[C@@H](CC(C)C)C(=O)N[C@@H](CCCNC(=N)N)C(=O)N[C@@H](Cc1c[nH]cn1)C(=O)N[C@@H](Cc1ccc(O)cc1)C(=O)N[C@@H](Cc1ccc(O)cc1)C(=O)N[C@@H](CC(N)=O)C(=O)N[C@@H](Cc1c[nH]c2ccccc12)C(=O)N[C@@H](CC(C)C)C(=O)N[C@H](C(=O)N[C@@H](CCCNC(=N)N)C(=O)N[C@@H](CCC(N)=O)C(=O)N[C@@H](CCCNC(=N)N)C(=O)N[C@@H](Cc1ccc(O)cc1)C(N)=O)[C@@H](C)O)C(C)C)[C@@H](C)O) [Compound 85] | 1.61 |
